Source: article PMC11385924

Legend:
[1] = test system: Km-AP23 (artificial (CPDiffusion design on KmAgo backbone)); assay: fluorescence polarization; details: FP: 5 nM FAM-DNA, 0-1500 nM protein, 15 mM Tris-HCl pH 7.4, 200 mM NaCl, 5 mM MnCl2, 37 C, 1 h, EMSA: 1 uM FAM-guide, 2 uM protein
[2] = test system: KmAgo (Km-WT) (Kurthia massiliensis); assay: fluorescence polarization; details: FP: 5 nM FAM-DNA, 0-1500 nM protein, 15 mM Tris-HCl pH 7.4, 200 mM NaCl, 5 mM MnCl2, 37 C, 1 h, EMSA: 1 uM FAM-guide, 2 uM protein

Substance | Kd [1] [nM] | Kd [2] [nM]
gDNA (guide DNA) | 17 | 65.9
tDNA (target DNA) | 29.5 | 70
